According to patent US20240294650A1:

B1: MTK-210 (antibody, human IgG1, V domains shown)
VH: QVQLQQSGPELVKPGASVKISCKASDYEFSRSWMNWVKQRPGKGLEWIGRIYPGDGDTNYNGKFKGKATLTADKSSNTAYMQLNSLTSEDSAVYFCARKGGYYYSISNYFDYWGQGTTLTVSS
VL: QIVLTQSPAIMSASPGVKVTMTCSASSSVSYMHWYQQKPGSSPRLLIYDTSNLASGVPVRFSGSGSGTSYSLTISRMEAEDAATYYCQQWSSYPPYTFGGGTKLEIK
B2: MTK-208 (antibody, human IgG1, V domains shown)
VH: QVQLQQPGAELVVPGASVRLSCKASGYTFINYWMHWVKQRPGQGLEWIGEIDPSDSYANYNQKFKDKSTLSLDKSSSTAYMQLSSLTSEDSAVYYCARCDYYGRLDYWGQGTTLTVSS
VL: QVVLTQSPAIMSASPGEKVTITCSASSSVSYMLWFQQKPGTSPKLWIYSTSNLASGVPARFSGSGSGTSYSLTISRLEAEDAATYYCQQRSSYPPITFGAGTKLELK
B3: MTK-221 (antibody, human IgG1, V domains shown)
VH: QVTLKESGPGMLQSSQTLSLTCSFSGFSLSTSGMGVSWIRQPSGKGLEWLAHIYWDDDKRYNTSLQSRLTISKDTSRNQVFLKITSVDTADTATYFCGRLGAYSAFPYYFDYWGQGTTLTVSS
VL: DIQMTQSPSSLSASLGGKVTITCKASQDIHKHIAWYQHKPGKGPRLLIHYTSTLQPGIPSRFSGSGSGRDYSFSISNLEPEDLATYYCLQYDNLWTFGGGTKLEIK
B4: MTK-217 (antibody, human IgG1, V domains shown)
VH: QVQLQQPGTEVVKPGASVKMSCRASGYTFTSYWITWVKQRPGQGLEWIGDIHPGSGINNYNEKFRSKATLTVDTSSSTVYMELSSLTSEDSAVYYCAKGGYYGSSYYVMDYWGQGTSVTVSS
VL: DILLTQSPAILSVSPGERVSFSCRASQTIGTSIHWYQQRTNDSPRLLIKYASESISGIPSRFSGSGSGTDFTLSINSVESEDIADYYCQQSNDWPYTFGGGTKLEIK
B5: MTK-201 (antibody, human IgG1, V domains shown)
VH: QVQLRQSGPGLVQPSQSLSITCTVSGFSLSNYGLHWVRQSPGKGLEWLGVIWSGGITDYNAAFISRLSIIKDNSRSQVFFKMNSLQADDTAIYYCARKGHDPYAMDFWGQGTSVTVSS
VL: QIVLTQSPPIMSAFLGERVTMTCTASSSVSSSYLHWYRQMPGSSPKLWIYDTSNLASGVPARFSGSGSGTSYSLTISSMEAEDAATYYCHQYHHSPYTFGGGTKLEIK

What follows are binders tested against endogenous murine MerTK on bone marrow-derived macrophages (mouse) (UniProt Q60805) (assay: FACS, mouse BMDM, WT minus MerTK KO).
Chain of endogenous murine MerTK on bone marrow-derived macrophages (mouse) (Q60805 19-994): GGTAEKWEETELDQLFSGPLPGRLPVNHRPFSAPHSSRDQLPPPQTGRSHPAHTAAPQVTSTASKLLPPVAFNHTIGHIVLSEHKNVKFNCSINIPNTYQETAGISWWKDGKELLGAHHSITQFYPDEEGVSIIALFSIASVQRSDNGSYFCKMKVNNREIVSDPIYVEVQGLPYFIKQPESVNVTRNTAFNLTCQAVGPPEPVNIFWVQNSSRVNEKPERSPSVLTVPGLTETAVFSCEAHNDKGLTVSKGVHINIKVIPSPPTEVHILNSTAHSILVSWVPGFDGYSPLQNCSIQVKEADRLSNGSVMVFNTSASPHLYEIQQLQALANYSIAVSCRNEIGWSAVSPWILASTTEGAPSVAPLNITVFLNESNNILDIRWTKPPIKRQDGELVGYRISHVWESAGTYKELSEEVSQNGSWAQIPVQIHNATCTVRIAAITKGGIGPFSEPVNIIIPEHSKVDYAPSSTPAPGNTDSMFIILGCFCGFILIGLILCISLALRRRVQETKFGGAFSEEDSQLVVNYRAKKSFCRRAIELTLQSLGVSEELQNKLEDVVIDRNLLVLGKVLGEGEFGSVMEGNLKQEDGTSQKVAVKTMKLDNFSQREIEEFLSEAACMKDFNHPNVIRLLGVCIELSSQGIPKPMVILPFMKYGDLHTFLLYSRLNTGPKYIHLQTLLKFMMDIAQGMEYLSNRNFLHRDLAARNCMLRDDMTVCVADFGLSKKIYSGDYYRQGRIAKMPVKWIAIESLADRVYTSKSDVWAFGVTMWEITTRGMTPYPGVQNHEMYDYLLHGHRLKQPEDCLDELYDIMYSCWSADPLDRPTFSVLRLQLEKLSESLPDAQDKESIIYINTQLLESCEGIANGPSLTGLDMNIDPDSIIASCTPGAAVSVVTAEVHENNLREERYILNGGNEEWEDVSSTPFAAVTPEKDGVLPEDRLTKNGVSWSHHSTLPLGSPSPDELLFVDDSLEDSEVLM

MFI [MFI]	Binder
1270	B1
1170	B2
993	B3
1130	B4
1030	B5
